Results reported in patent US20110311585A1.

Columns and labels:
Assay in all cases: cell-based or functional assay
[1] = target: HIV-1 envelope glycoprotein gp160, clone 022 from subject 108060, Q655R mutant (HIV-1)
[2] = target: HIV-1 envelope glycoprotein gp160, clone 005 from subject 108069, Q655R mutant (HIV-1)
[3] = target: HIV-1 envelope glycoprotein gp160, clone 024 from subject 108060, R655Q mutant (HIV-1)
[4] = target: HIV-1 envelope glycoprotein gp160, clone 005 from subject 108051, Q655R mutant (HIV-1)

| Substance | IC50, pseudovirus neutralization [1] [mg/L] | fold increase in neutralization sensitivity against wild-type clone 022 [1] [fold] | IC50, pseudovirus neutralization [2] [mg/L] | fold increase in neutralization sensitivity against the parental virus [2] [fold] | IC50, pseudovirus neutralization [3] [mg/L] | IC50, pseudovirus neutralization [4] [mg/L] |
| --- | --- | --- | --- | --- | --- | --- |
| CD4-IgG (from UniProt P01730 26-205) (Fc fusion) | 0.161 | > 125 | 1.08 | > 20 | > 20 | 5.21 |
| broadly neutralizing monoclonal antibody 2F5 | 0.093 | 30 to 35 | 0.052 |  | 3.43 | 0.343 |
| broadly neutralizing monoclonal antibody 4E10 | 0.156 | 30 to 35 | 0.044 |  | 6.55 | 1.31 |
| broadly neutralizing, CD4 blocking monoclonal antibody (MAb) b12 | > 20 |  | > 20 |  | > 20 | > 20 |
| enfuvirtide (peptide) | 0.004 | 17 | 0.011 | > 17 | 0.13 | 0.036 |
| monoclonal antibody 2G12 | > 20 |  | > 20 |  | > 20 | > 20 |
